Data on seven molecules can be found in patent US20070066809A1.

For assay [1], the target named is MAb 400-1. Nature of the assay: MAb inhibition ELISA; soluble inhibitor of MAb binding to coated hG17(1-9)-“Ala”-BSA.
The target of assay [2] is MAb 400-2. The description is as above.
The target in assay [3] is MAb 400-4. The assay is described as above.
Assay [4] deals with MAb 400-3. The assay is described as above.
Assay [5] has as its target MAb 458-5. The assay can be described thus: MAb inhibition ELISA; soluble inhibitor of MAb binding to the coated C-terminal target peptide-BSA.
Assay [6] concerns the target MAb 458-3. The assay is described as above.
Assay [7] concerns the target MAb 458-2. The assay is described as above.
Assay [8] deals with MAb 458-4. The assay is described as above.
Assay [9] deals with MAb 458-1. The assay is described as above.
The target in assay [10] is MAb 401-2. The assay can be described thus: MAb inhibition ELISA; soluble inhibitor of MAb 401-2 binding to the coated G34 N-terminal target antigen.
Assay [11] deals with MAb 445-1. Nature of the assay: MAb inhibition ELISA; soluble inhibitor of MAb binding to coated hG34(16-34)-Gly 35-BSA.
Assay [12] deals with MAb 445-2. Described as above.

Where no end group is shown, it is not given here. [ ]: non-standard residue; d: D form. pGlu = O=C1CC[C@@H](C(=O)O)N1

As for EGPWLEKEEAAYGWMDF (ends and bridges not checked) [equine G17], the half-maximal inhibitory concentration (IC50) in [1] was found to be 1650 nM; in [2] it was 86 nM; in [3], 1690 nM; in [4], 120 nM.

B1: human gastrin-34 (G34), amidated (peptide)
peptide: [pGlu]LGPQGPPHLVADPSKKEGPWLEEEEEAYGWMDF-NH2
SMILES: CSCC[C@H](NC(=O)[C@H](Cc1c[nH]c2ccccc12)NC(=O)CNC(=O)[C@H](Cc1ccc(O)cc1)NC(=O)[C@H](C)NC(=O)[C@H](CCC(=O)O)NC(=O)[C@H](CCC(=O)O)NC(=O)[C@H](CCC(=O)O)NC(=O)[C@H](CCC(=O)O)NC(=O)[C@H](CCC(=O)O)NC(=O)[C@H](CC(C)C)NC(=O)[C@H](Cc1c[nH]c2ccccc12)NC(=O)[C@@H]1CCCN1C(=O)CNC(=O)[C@H](CCC(=O)O)NC(=O)[C@H](CCCCN)NC(=O)[C@H](CCCCN)NC(=O)[C@H](CO)NC(=O)[C@@H]1CCCN1C(=O)[C@H](CC(=O)O)NC(=O)[C@H](C)NC(=O)[C@@H](NC(=O)[C@H](CC(C)C)NC(=O)[C@H](Cc1c[nH]cn1)NC(=O)[C@@H]1CCCN1C(=O)[C@@H]1CCCN1C(=O)CNC(=O)[C@H](CCC(N)=O)NC(=O)[C@@H]1CCCN1C(=O)CNC(=O)[C@H](CC(C)C)NC(=O)[C@@H]1CCC(=O)N1)C(C)C)C(=O)N[C@@H](CC(=O)O)C(=O)N[C@@H](Cc1ccccc1)C(N)=O
On to B1, for which the % Inhibition at 10 nmol/ml (250 pmoles/well) in [5] amounted to 91.5%; in [6], 90.7%; in [7], 84.5%; in assay [8], 86.7%; in [9], 93.5%. Moreover, in assay [10], the IC50 was 700 nM.

As for [pGlu]GPWLEEEEEAYGWMDFG [human glycine-extended gastrin-17 (G17-Gly)], the IC50 in assay [1] is 1790 nM; in assay [2], 77 nM; in assay [3], 699 nM; in assay [4], 1390 nM; in [11], 700 nM; in [12], 5 µM. Besides, the % Inhibition at 10 nmol/ml (250 pmoles/well) in [9] is 2.1%.

With CPPPPSSYGWMDFG [hG17 (12-17)-Gly18 peptide (immunogen peptide …)], the IC50 came out at 4000 nM in assay [11] and 13 µM in assay [12].

In the case of EGPWLEEEEEAYGWMDF (N-terminal pyroglutamic acid (pGlu); C-terminal Phe-NH2 (amide)) [human gastrin-17 (G17), mature amidated form], the IC50 was 2030 nM in assay [1], 85 nM in [2], 620 nM in assay [3] and 1080 nM in assay [4]. Moreover, the % Inhibition at 10 nmol/ml (250 pmoles/well) in [5] was determined as 91.9%; in [6], 92.4%; in assay [7], 86%; in assay [8], 88.4%; in assay [9], 94.3%.

Consider DYMGWMDF-NH2 [CCK (26-33) unsulfated], for which the % Inhibition at 10 nmol/ml (250 pmoles/well) in assay [5] came to 92%; in [6] it was 84.8%; in assay [7] it was 84.8%; in assay [8], 83.4%; in [9], 93.8%.

With [pGlu]GPWLEEEE (ends and bridges not checked) [hG17(1-9) N terminus peptide], the % Inhibition at 10 nmol/ml (250 pmoles/well) in assay [6] is 1.2%.
